# B1: HTRA1 R302X with a V5 tag at the C-terminus (enzyme)
# chain: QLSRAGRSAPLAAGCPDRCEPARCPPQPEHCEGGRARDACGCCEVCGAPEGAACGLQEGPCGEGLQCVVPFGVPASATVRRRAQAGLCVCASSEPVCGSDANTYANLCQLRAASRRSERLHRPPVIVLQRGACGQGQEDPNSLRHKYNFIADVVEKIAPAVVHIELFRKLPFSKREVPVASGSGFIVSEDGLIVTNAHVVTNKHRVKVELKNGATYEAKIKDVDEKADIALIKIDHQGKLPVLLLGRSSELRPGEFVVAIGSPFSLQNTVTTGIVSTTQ
# notes: The range 1-301 is derived from that statement; not shown: C-terminal V5 tag
# Target: T1, α1-antitrypsin (UniProt P01009 25-418)
# T1 construct: Co-expressed with HTRA1-V5 in HEK293 cells; Complex detected in serum-free conditioned medium by anti-V5 immunoblot; also called al-antitrypsin
# Test: co-expression in HEK293, anti-V5 immunoblot of conditioned medium
# Description: To assay formation of a stable complex with α1-antitrypsin, we transiently expressed α1-antitrypsin and either wild-type or mutated HTRA1 cDNAs with a VS tag at the C-terminus in HEK293 cells. These cells were grown in serum-free medium, and conditioned media were then immunoblotted with anti-V5 antibody.¹⁴
# T1 sequence (P01009 25-418 limits assumed): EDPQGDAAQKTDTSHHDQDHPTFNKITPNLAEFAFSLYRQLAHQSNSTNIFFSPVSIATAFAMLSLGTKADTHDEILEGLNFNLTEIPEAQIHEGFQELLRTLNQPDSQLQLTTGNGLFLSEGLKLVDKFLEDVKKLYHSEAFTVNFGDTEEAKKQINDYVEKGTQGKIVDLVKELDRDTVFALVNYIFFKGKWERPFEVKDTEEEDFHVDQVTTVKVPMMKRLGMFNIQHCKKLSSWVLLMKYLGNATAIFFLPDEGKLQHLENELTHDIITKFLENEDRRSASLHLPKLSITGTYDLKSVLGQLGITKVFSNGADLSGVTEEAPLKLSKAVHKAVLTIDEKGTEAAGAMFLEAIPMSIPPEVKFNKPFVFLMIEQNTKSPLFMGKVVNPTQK
binder,measurement,value
B1,binding result,no binding
